The target in the experiment is HLA-A*02:01 (Homo sapiens, UniProt P04439, D140Y/D185E/D98H/E176V/E277Q/G131W/G231S/I119V/I121R/I166T/I218V/L300P/L318F/N151K/N90K/P208A/P217A/Q86G/Q94H/R138H/R169H/T345S). As to the kind of experiment: MHC binding assay (UV-ligand exchange, β2m ELISA, peptide exchange yield). As to conditions: binding of HLA-class I restricted peptides to HLA-A*02:01, UV-ligand exchange. Put shortly: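 Yield of stabilized complexes quantified via the β2m light chain in an ELISA (streptavidin capture, 100-fold diluted monomers, HRP anti-β2m 2 ug/ml at 37 °C, TMB, A450). The complexes come from UV-triggered replacement of a photocleavable ligand by the candidate peptide.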

Regarding “176 (YLMEGSYNKVFL; listed as Homo sapiens) [compound 176]”, the “Peptide exchange (MHC class I binding score, peptide exchange yield)” value (shortened to “Peptide exchange”) is reported as ““++” (≥20% = ++)”. The result for “177 (YLLPEEYTSTL; listed as Homo sapiens) [compound 177]” reads ““++++” (≥75% = ++++)”. Consider “178 (ALTEIAFVV; listed as Homo sapiens) [compound 178]”, for which the “Peptide exchange” value is ““++++” (≥75% = ++++)”. On to “179 (KVLNELYTV; listed as Homo sapiens) [compound 179]”, for which the “Peptide exchange” value is ““+++” (≥50 = +++)”.

“180 (FQIDPHSGLVTV; listed as Homo sapiens) [compound 180]”: the “Peptide exchange” value was ““++” (≥20% = ++)”.

As to “181 (LLWAGTAFQV; listed as Homo sapiens) [compound 181]”, the “Peptide exchange” value is recorded as ““+++” (≥50 = +++)”. The result for “182 (MLLEAPGIFL; listed as Homo sapiens) [compound 182]” reads ““+++” (≥50 = +++)”.

On to “183 (FGLDLVTEL; listed as Homo sapiens) [compound 183]”, for which the “Peptide exchange” value is ““+++” (≥50 = +++)”. The result for “184 (YLMDINGKMWL; listed as Homo sapiens) [compound 184]” reads ““+++” (≥50 = +++)”; that for “185 (FLIDDKGYTL; listed as Homo sapiens) [compound 185]”, ““++” (≥20% = ++)”; that for “186 (TLFFQQNAL; listed as Homo sapiens) [compound 186]”, ““++” (≥20% = ++)”. The entry for “187 (RQISIRGIVGV; listed as Homo sapiens) [compound 187]” is ““+++” (≥50 = +++)”.

In the case of “188 (GLFPVTPEAV; listed as Homo sapiens) [compound 188]”, the “Peptide exchange” value is reported as ““+++” (≥50 = +++)”. On to “189 (ALQRKLPYV; listed as Homo sapiens) [compound 189]”, for which the “Peptide exchange” value is given as ““+++” (≥50 = +++)”. The result for “190 (FLSSLTETI; listed as Homo sapiens) [compound 190]” reads ““+++” (≥50 = +++)”; that for “191 (LLQEGQALEYV; listed as Homo sapiens) [compound 191]”, ““++” (≥20% = ++)”; that for “192 (KMLDGASFTL; listed as Homo sapiens) [compound 192]”, ““+++” (≥50 = +++)”. The entry for “193 (QLLDADGFLNV; listed as Homo sapiens) [compound 193]” is ““+++” (≥50 = +++)”; for “194 (ALPLFVITV; listed as Homo sapiens) [compound 194]” it is ““+++” (≥50 = +++)”; for “195 (GLFADLLPRL; listed as Homo sapiens) [compound 195]” it is ““+++” (≥50 = +++)”.

For “196 (YLYSVEIKL; listed as Homo sapiens) [compound 196]”, the “Peptide exchange” value is given as ““++++” (≥75% = ++++)”. The result for “197 (ALGPEGGRV; listed as Homo sapiens) [compound 197]” reads ““++” (≥20% = ++)”; that for “198 (KTINKVPTV; listed as Homo sapiens) [compound 198]”, ““+++” (≥50 = +++)”. The entry for “199 (ALQDVPLSSV; listed as Homo sapiens) [compound 199]” is ““+++” (≥50 = +++)”; for “200 (LLFGSVQEV; listed as Homo sapiens) [compound 200]” it is ““+++” (≥50 = +++)”.

As for “201 (RLVDYLEGI; listed as Homo sapiens) [compound 201]”, the “Peptide exchange” value is ““+++” (≥50 = +++)”.

On to “202 (ALLDQQGSRWTL; listed as Homo sapiens) [compound 202]”, for which the “Peptide exchange” value is reported as ““+++” (≥50 = +++)”.

With “204 (KIAENVEEV; listed as Homo sapiens) [compound 204]”, the “Peptide exchange” value is given as ““++” (≥20% = ++)”. As for “205 (SLYPGTETMGL; listed as Homo sapiens) [compound 205]”, the “Peptide exchange” value was ““+++” (≥50 = +++)”.

Turning to “206 (VLQEGKLQKLAQL; listed as Homo sapiens) [compound 206]”, the “Peptide exchange” value is ““+++” (≥50 = +++)”.

“207 (GLTSTNAEV; listed as Homo sapiens) [compound 207]”: the “Peptide exchange” value is ““++” (≥20% = ++)”. The entry for “208 (KISPVTFSV; listed as Homo sapiens) [compound 208]” is ““+++” (≥50 = +++)”. The result for “209 (KLIESKHEV; listed as Homo sapiens) [compound 209]” reads ““++” (≥20% = ++)”. The result for “210 (LLLNAVLTV; listed as Homo sapiens) [compound 210]” reads ““++” (≥20% = ++)”; that for “211 (LLWPGAALL; listed as Homo sapiens) [compound 211]”, ““++” (≥20% = ++)”.

Consider “212 (ALWDQDNLSV; listed as Homo sapiens) [compound 212]”, for which the “Peptide exchange” value is on record as ““++” (≥20% = ++)”. The entry for “214 (FLLDLDPLLL; listed as Homo sapiens) [compound 214]” is ““+++” (≥50 = +++)”; for “215 (QLINHLHAV; listed as Homo sapiens) [compound 215]” it is ““+++” (≥50 = +++)”.

Regarding “216 (NLWEDPYYL; listed as Homo sapiens) [compound 216]”, the “Peptide exchange” value is recorded as ““+++” (≥50 = +++)”.

Take “217 (ALIHPVSTV; listed as Homo sapiens) [compound 217]”: the “Peptide exchange” value is ““++” (≥20% = ++)”. For “218 (SALEELVNV; listed as Homo sapiens) [compound 218]”, the “Peptide exchange” value is ““++” (≥20% = ++)”. The entry for “219 (KLSDIGITV; listed as Homo sapiens) [compound 219]” is ““+++” (≥50 = +++)”. The entry for “220 (LLQKFVPEI; listed as Homo sapiens) [compound 220]” is ““++” (≥20% = ++)”; for “221 (ALYEEGLLL; listed as Homo sapiens) [compound 221]” it is ““++” (≥20% = ++)”. The entry for “222 (NLIENVQRL; listed as Homo sapiens) [compound 222]” is ““++” (≥20% = ++)”; for “223 (ALLENIALYL; listed as Homo sapiens) [compound 223]” it is ““+++” (≥50 = +++)”. As for “224 (TLIDAQWVL; listed as Homo sapiens) [compound 224]”, the “Peptide exchange” value was ““+++” (≥50 = +++)”. The entry for “225 (SLLKVLPAL; listed as Homo sapiens) [compound 225]” is ““+++” (≥50 = +++)”; for “226 (MLYVVPIYL; listed as Homo sapiens) [compound 226]” it is ““++” (≥20% = ++)”. The result for “227 (ALMNTLLYL; listed as Homo sapiens) [compound 227]” reads ““++” (≥20% = ++)”; that for “228 (AMQEYIAVV; listed as Homo sapiens) [compound 228]”, ““++” (≥20% = ++)”; that for “229 (RLPGPLGTV; listed as Homo sapiens) [compound 229]”, ““++” (≥20% = ++)”. The entry for “230 (ILVDWLVEV; listed as Homo sapiens) [compound 230]” is ““+” (≥10% = +)”; for “231 (FLSPQQPPLLL; listed as Homo sapiens) [compound 231]” it is ““++” (≥20% = ++)”. On to “232 (ALLEAQDVELYL; listed as Homo sapiens) [compound 232]”, for which the “Peptide exchange” value was ““++” (≥20% = ++)”. “233 (VLSETLYEL; listed as Homo sapiens) [compound 233]”: the “Peptide exchange” value is given as ““++” (≥20% = ++)”. The result for “234 (ALMEDTGRQML; listed as Homo sapiens) [compound 234]” reads ““++” (≥20% = ++)”. The result for “235 (YLNDLHEVLL; listed as Homo sapiens) [compound 235]” reads ““++++” (≥75% = ++++)”; that for “236 (GLLEAKVSL; listed as Homo sapiens) [compound 236]”, ““+++” (≥50 = +++)”. Consider “237 (ALLEASGTLLL; listed as Homo sapiens) [compound 237]”, for which the “Peptide exchange” value is given as ““++++” (≥75% = ++++)”. The entry for “238 (YLISFQTHI; listed as Homo sapiens) [compound 238]” is ““+++” (≥50 = +++)”.

The values above are taken from patent publication US11230581B2, “Peptides and combination of peptides for use in immunotherapy against ovarian cancer and other cancers” (Immatics Biotechnologies GmbH, priority 2015, dated 2022).
